The text below walks through data of the supplement of paper PMC9170038.

The test system of this data set is MS2 coat protein. Kind of data set: apparent KD of MS2 coat protein; designed switch direction (-1 OFF switch, 1 ON switch): -1; higher = weaker reporter binding. The procedure, abridged: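 Apparent KD, taken as the median over clusters for each design, was obtained by curve-fitting normalised cluster fluorescence. Designed RNA switches had been transcribed on Illumina chips by stalled E. coli RNA polymerase and titrated with SNAP-549-labelled MS2 coat protein, doubling from 0.7 or 1.5 nM to 3 µM.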

[1] abbreviates: Eterna round: R95, input ligand: microRNA oligo, concentration not stated.
[2] abbreviates: input ligand: microRNA oligo, concentration not stated.
[3] abbreviates: Eterna round: R95, input ligand: FMN 200 uM.
Where [4] appears, read: Eterna round: R95, input ligand: none.

Regarding “CGCAUGCAAGGAUAUACUUGCAGUGAUAUUCGAUAAAGUCUACUUGAGGAUCACCCAAGUAGAAGGUGCAUGCG [Exclusion 2 (Mod6.1 JL EX2 4.74 Vienna UCT mod of Mamaed)] (Eterna round: R97, puzzle: Exclusion 2)”, the “apparent KD of MS2 coat protein” value (input ligand: FMN 200 uM) came to 33.3 nM and the “apparent KD of MS2 coat protein” value (input ligand: none) came to 25 nM.

As for “CGCUGGACAGGAUAUGUUCUUGGGCACUUGAGGAUCACCCAAGUCAUCAAAAACUCAGGCACAGAAGGGUUUAUGG [salish99_ex5_r4_019] (Eterna round: R97, puzzle: Exclusion 5)”, the “apparent KD of MS2 coat protein” value is, setting by setting: (input ligand: FMN 200 uM) 76 nM; (input ligand: none) 176 nM.

For the sequence “CGGAUGUGAGGAUAUACAUGAGGAUCACCCAUGUGAGCCAGCUAGAUGACUGGCUCGUGUAGAAGGCACGUCUG [Mat - Exclusion 3 - Mod of JL D92] (puzzle: Exclusion 3)”, the “apparent KD of MS2 coat protein” value under setting [1] was 12.1 nM.

Consider “CGGAUGUUAGGAUAUUAGUAGUAGUCAGAAUAGACUAUUACUGAGAAGGAACAUGAGGAUCACCCAUGUUUCCG [Eli x4 4.19] (Eterna round: R97, puzzle: Exclusion 4)”, for which the “apparent KD of MS2 coat protein” value reads like this: (input ligand: FMN 200 uM) 16.5 nM; (input ligand: none) 17.4 nM.

As to “CGGCAUGAAGGAUAUACAUGAGGAUCACCCAUGUAAGUUACCUACAUGGCCUCACCUAGUAGAAGGUUAUCCGG [Eternabot (L2) Solution 72] (Eterna round: R97, puzzle: Exclusion 3)”, the “apparent KD of MS2 coat protein” value runs as follows: (input ligand: FMN 200 uM) 94.4 nM; (input ligand: none) 28 nM.

Turning to “CGGCAUGUAGAAGGAUAUCUGCACGUUUAGUGCAGAGAAGGUCUAACAUGAGGAUCACCCAUGUAGAUCAUUAACCGAUUAAUU [ENG1/8-A2] (Eterna round: R96, puzzle: Exclusion NG 1)”, the “apparent KD of MS2 coat protein” value amounted to 19.5 nM (input ligand: FMN 200 uM), 10.4 nM under setting [2] and 12.1 nM (input ligand: none).

Turning to “CGGUCGUCCUCAGGAUAUACAUGAGGAUCACCCAUGUUUCUAGGAUCGGUCGUCCGGUCGGUGGUGUAGAAGGGAGGGUGGCUG [random 2, A 18%] (Eterna round: R96, puzzle: Exclusion NG 2)”, the “apparent KD of MS2 coat protein” value by setting is: (input ligand: FMN 200 uM) 159 nM; under setting [2], 37.1 nM; (input ligand: none) 43.6 nM.

“CGGUGUAACGUAGGAUAUCAACGCAACUGACGAUGAGAAGGACGACAUGAGGAUCACCCAUGUGAUUUCUCAAUAUUAUACAUC [Prohibition 86 - Jieux - Exclusion NG 1] (Eterna round: R96, puzzle: Exclusion NG 1)”: the “apparent KD of MS2 coat protein” value runs as follows: (input ligand: FMN 200 uM) 339 nM; under setting [2], 41.9 nM; (input ligand: none) 63.4 nM.

Take “CGUAGCAAAGUGAGGAUAUCUAGAGCCUCGGCUCUAGAGAAGGCACAUGAGGAUCACCCAUGUGGUCAGCUACG [BmEx4/8-A2] (Eterna round: R97, puzzle: Brourd's mod of Exclusion 4)”: the “apparent KD of MS2 coat protein” value is, setting by setting: (input ligand: FMN 200 uM) 1050 nM; (input ligand: none) 101 nM.

With “CGUCAGUGAGGAUAUGGUAACGUUUACAUGAGGAUCACCCAUGUUUCAUGGGACUAGAGACUAGAAGGCACUGACG [JR_Ex5_Sub030] (Eterna round: R97, puzzle: Exclusion 5)”, the “apparent KD of MS2 coat protein” value runs as follows: (input ligand: FMN 200 uM) 439 nM; (input ligand: none) 416 nM.

As to “CGUCCGAACUCAGGAUAUCAACUUAACAACAUGAGGAUCACCCAUGUGGCCUGUAAAACCCGAGAUGAGAAGGGAGGGCGGGCC [Usceondiat] (Eterna round: R96, puzzle: Exclusion NG 2)”, the “apparent KD of MS2 coat protein” value runs as follows: (input ligand: FMN 200 uM) 13.6 nM; under setting [2], 15.4 nM; (input ligand: none) 19.7 nM.

As for “CGUCUGUAAGGAUAUGGUUACAUAGACAUGAGGAUCACCCAUGUUACGUGGGACUAGUGAUUAGAAGGUACGAACG [EX5 #67] (Eterna round: R97, puzzle: Exclusion 5)”, the “apparent KD of MS2 coat protein” value came out at 54.7 nM (input ligand: FMN 200 uM) and 51.2 nM (input ligand: none).

Consider “CGUGACUCAGGAUAUCUAUUGUAUCACAUGAGGAUCACCCAUGUCCAGCGAAAGCUGGAGGGAGAAGGGAGUCACG [Fiskers Ex 5 - 46] (puzzle: Exclusion 5)”, for which the “apparent KD of MS2 coat protein” value by setting is: under setting [3], 48.6 nM; under setting [1], 204 nM; under setting [4], 186 nM.

Consider “CGUGACUCAGGAUAUGUAUAAUAUCACAUGAGGAUCACCCAUGUCCAGCGAAAGCUGGAGGCAGAAGGGAGUCACG [Fiskers Ex 5 - 38] (puzzle: Exclusion 5)”, for which the “apparent KD of MS2 coat protein” value by setting is: under setting [3], 43.1 nM; under setting [1], 58.8 nM; under setting [4], 31.9 nM.

Take “CGUGCGUAUGUGAGGAUAUGCUGGUCCUUGGAUCAGCAGAAGGCACAUGAGGAUCACCCAUGUGGUGUCGUACU [salish99_Bmod_Ex4_017] (puzzle: Brourd's mod of Exclusion 4)”: the “apparent KD of MS2 coat protein” value under setting [1] was found to be 161 nM.

Turning to “CGUGCGUAUGUGAGGAUAUGCUGGUCCUUGGAUCGGCAGAAGGCACAUGAGGAUCACCCAUGUGGUGUCGUUCC [salish99_Bmod_ex4_094] (Eterna round: R96, puzzle: Brourd's mod of Exclusion 4)”, the “apparent KD of MS2 coat protein” value reads like this: (input ligand: FMN 200 uM) 328 nM; under setting [2], 30.8 nM; (input ligand: none) 39.1 nM.

“CGUGCGUAUGUGAGGAUAUGCUGGUCCUUGGAUCGGCAGAAGGCACAUGAGGAUCACCCAUGUGGUGUCGUUCC [salish99_Bmod_ex4_094] (puzzle: Brourd's mod of Exclusion 4)”: the “apparent KD of MS2 coat protein” value under setting [1] stood at 39 nM.

As to “CGUGGCCGGUGAGGAUAUUGAUGACAUGAGGAUCACCCAUGUGUAUCCUCUCGAAAUACCGUGAUCAAGAAGGCAUGGUGCCAC [Ritibe] (Eterna round: R96, puzzle: Exclusion NG 2)”, the “apparent KD of MS2 coat protein” value runs as follows: (input ligand: FMN 200 uM) 68.5 nM; under setting [2], 12 nM; (input ligand: none) 14 nM.

Turning to “CUAAAUCAUGUAGGAUAUGCAUAGCAAAGCUAUGCAGAAGGACAUGAGGAUCACCCAUGUCAUUCCGUCUGGAGACAGACGGGA [Mat - Exclusion NG 1 - Mod of JL - D56] (Eterna round: R96, puzzle: Exclusion NG 1)”, the “apparent KD of MS2 coat protein” value is 142 nM (input ligand: FMN 200 uM), 25 nM under setting [2] and 32.5 nM (input ligand: none).

On to “CUAAAUCAUGUAGGAUAUGCGUGGCAAAGCUAUGCAGAAGGACAUGAGGAUCACCCAUGUGCUUCCGUCUGAGUACAGACGGUA [Mat - Exclusion NG 1 - Mod of JL - D22] (Eterna round: R96, puzzle: Exclusion NG 1)”, for which the “apparent KD of MS2 coat protein” value runs as follows: (input ligand: FMN 200 uM) 622 nM; under setting [2], 72.9 nM; (input ligand: none) 98.2 nM.

On to “CUAAUGUAUCAGGAUAUGAUUAUAUGUGUUGGAUCAGAAGGGAUAACAUGAGGAUCACCCAUGUUGUGGAGUGA [JR_Ex6_Sub036] (Eterna round: R97, puzzle: Exclusion 6)”, for which the “apparent KD of MS2 coat protein” value was found to be 202 nM (input ligand: FMN 200 uM) and 234 nM (input ligand: none).

Consider “CUAAUUCGAGGAUAUGCAAUGGAGUCUUUAAUAUAGUUCUCACAUGAGGAUCACCCAUGUAGAAGGCGAGCGGG [Eternabot (L1) Solution 50] (Eterna round: R97, puzzle: Exclusion 2)”, for which the “apparent KD of MS2 coat protein” value runs as follows: (input ligand: FMN 200 uM) 115 nM; (input ligand: none) 53.1 nM.

“CUACUACAUGAGGAUCACCCAUGUGAGGAUAUCAGUGGUGCUGCUAGGUAGUCCGGACUGAGAAGGCGCAUAGU [Mod-Malcom] (Eterna round: R97, puzzle: Exclusion 1)”: the “apparent KD of MS2 coat protein” value (input ligand: FMN 200 uM) was 43.1 nM and the “apparent KD of MS2 coat protein” value (input ligand: none) is 52.8 nM.

For “CUAGACGGAGGAUAUACGAGAUCGAAAGAUCGGCGAUCCCUACAUGAGGAUCACCCAUGUAGAAGGCUGUUUAG [Mod 19 - Jieux - Exclusion 2] (Eterna round: R97, puzzle: Exclusion 2)”, the “apparent KD of MS2 coat protein” value (input ligand: FMN 200 uM) turned out to be 69.9 nM and the “apparent KD of MS2 coat protein” value (input ligand: none) came out at 16.2 nM.

Take “CUAGCGGAUGUAGGAUAUCGGACUGUUUCAGUCUGAGAAGGACAUGAGGAUCACCCAUGUAUUGCUGCGUGAGUAGCACGCUAG [JL ENG1 3.97] (Eterna round: R96, puzzle: Exclusion NG 1)”: under setting [2], the “apparent KD of MS2 coat protein” value came out at 17.4 nM.

For “CUAGCGUAUGUAGGAUAUCGGACUGUUUCAGUCUGAGAAGGACAUGAGGAUCACCCAUGUAUAGCUACGUGAGUAGCUCGCUAG [JL ENG1 3.94] (Eterna round: R96, puzzle: Exclusion NG 1)”, under setting [2], the “apparent KD of MS2 coat protein” value came out at 17.2 nM.

For “CUAGCUAUUGUAGGAUAUCGAUGUGUUUCACAUCGAGAAGGACAUGAGGAUCACCCAUGUGAAGGAUCGUGAGAUCCAAGCUAG [JL ENG1 3.77] (Eterna round: R96, puzzle: Exclusion NG 1)”, the “apparent KD of MS2 coat protein” value by setting is: (input ligand: FMN 200 uM) 128 nM; under setting [2], 25.1 nM; (input ligand: none) 24.1 nM.

For “CUAGUAUAUCAGGAUAUGAUUUUAUAUAGUUGGUCAGAAGGGAUGACAUGAGGAUCACCCAUGUUAAGGAGUGA [JR_Ex6_Sub043] (Eterna round: R97, puzzle: Exclusion 6)”, the “apparent KD of MS2 coat protein” value (input ligand: FMN 200 uM) is 143 nM and the “apparent KD of MS2 coat protein” value (input ligand: none) was found to be 118 nM.

As to “CUAGUAUAUCAGGAUAUGAUUUUAUAUAUUGGAUCAGAAGGGAUAACAUGAGGAUCACCCAUGUUAAGGAGUGA [JR_Ex6_Sub040] (Eterna round: R97, puzzle: Exclusion 6)”, the “apparent KD of MS2 coat protein” value runs as follows: (input ligand: FMN 200 uM) 155 nM; (input ligand: none) 45 nM.

“CUCAAAAGUCGGUUUACACACAUGAGGAUCACCCAUGUAAGCAAACAUAUAGGCUCUACGAUUUGCUCGCUCUUAUA [Eternabot (L1) Solution 34] (Eterna round: R97, puzzle: Sensor, turn-off variant 1)”: the “apparent KD of MS2 coat protein” value was 13.5 nM (input ligand: FMN 200 uM) and 13.2 nM (input ligand: none).
